Numbering of substitutions follows the chain as printed. Where no end group is shown, it is not given here.

Ten molecules from paper PMC9234716, “Comparative analysis defines a broader FMRFamide-gated sodium channel family and determinants of neuropeptide sensitivity” (The Journal of Biological Chemistry, 2022) can be followed below.

The test system of assay [1] is Capitella WaNaC^212912. The assay can be described thus: Two-electrode voltage clamp of Xenopus oocytes expressing Capitella WaNaC 212912. It counts as cell-based, Capitella teleta. Here is the method: (§1) Defolliculated stage V/VI oocytes from X. laevis were commercially acquired (Ecocyte Bioscience) and stored at 18 °C in 50% (in water) Leibovitz’s L-15 medium (Gibco) supplemented with additional 0.25 mg/ml gentamicin, 1 mM L-glutamine, and 15 mM Hepes, pH 7.6. Oocytes were injected with 2 ng cRNA (WT or mutant Aplysia FaNaC) and 2 to 60 ng cRNA (WT C. gigas XM_011442205.2, O. bimaculoides XM_014930938.1, L. gigantea XM_009055314.1_160261, P. fucata pfu_aug2.0_4392.1_09318.t1, C. teleta Capca1_207658, Capca1_52833, Capca1_185559, and Capca1_212912, M. lignano Mlig049925.g2, Mlig051885.g1, and Mlig041003.g1, P. australis g6004.t1 and g5063.t1 and R. norvegicus NP_077068.1 (rat ASIC1a) and respective mutants). Two-electrode voltage clamp experiments were performed 1 to 3 days after injection. The oocyte was placed in an RC-3Z bath (Warner Instruments) and bath solution (NaCl: 96 mM, KCl: 2 mM, CaCl2: 1.8 mM, MgCl2: 1 mM, Hepes: 5 mM; pH: 7.5) was perfused continuously and rapidly switched to bath solution containing peptide ligands via the VCS-8-pinch valve control perfusion system (Warner Instruments). […] Peptides were applied at varying concentrations between 30 nM and 100 μM for concentration-response experiments. […] Current recordings were analyzed in Clampfit 11.1 (Molecular Devices). […]
Background: In two-electrode clamp one electrode senses voltage and the other passes current.

Assay [2] relates to Octopus FaNaC. Put plainly: Peptide-gated currents at oocytes expressing Octopus FaNaC. It counts as cell-based, Octopus bimaculoides. The settings on record: peptides at 100 μM. An excerpt: (§2) Figure 1 Phylogenetic and experimental characterization of the FaNaC family.A, FaNaC branch from DEG/ENaC phylogeny (full phylogeny in Fig. S1). ∗Genes tested here. ∞Genes tested elsewhere. Genes in bold encode peptide-gated channels. aLRT support for key branches is shown. Blue background, broader FaNaC family; green background, annelid-specific branch of FaNaCs with diverse ligand sensitivity; pink background, Wamide-activated channels (WaNaCs). B, example peptide-gated currents at Xenopus oocytes expressing indicated genes. All peptide applications 100 μM, except for some at Capitella FaNaC: FMRFa, FLRPa, FLRFa, and FMKFa (3 μM); LFRYa (30 μM). The scale bars represent x, 10 s; y, 5 μA. C, mean (± SEM) normalized current response to different peptides (concentrations as in (B)) at oocytes expressing indicated channels. Lighter symbols are individual data points, n = 4 to 7. FaNaC, FMRFa-gated sodium channel; FMRFa, Phe-Met-Arg-Phe-amide.

Assay [3] has as its system Crassostrea FaNaC. The assay can be described thus: Peptide-gated currents at oocytes expressing Crassostrea FaNaC. Type of assay: cell-based, Crassostrea gigas. The settings on record: peptides at 100 μM.
Source text: as §2

The target of assay [4] is T1, rat ASIC1a (Rattus norvegicus, UniProt P55926, K246A).
T1 construct: R. norvegicus NP_077068.1 (rat ASIC1a) and respective mutants; expressed in transfected cells; host or cells: Xenopus laevis oocytes (cRNA injection)
T1 sequence (P55926 1-526 K246A): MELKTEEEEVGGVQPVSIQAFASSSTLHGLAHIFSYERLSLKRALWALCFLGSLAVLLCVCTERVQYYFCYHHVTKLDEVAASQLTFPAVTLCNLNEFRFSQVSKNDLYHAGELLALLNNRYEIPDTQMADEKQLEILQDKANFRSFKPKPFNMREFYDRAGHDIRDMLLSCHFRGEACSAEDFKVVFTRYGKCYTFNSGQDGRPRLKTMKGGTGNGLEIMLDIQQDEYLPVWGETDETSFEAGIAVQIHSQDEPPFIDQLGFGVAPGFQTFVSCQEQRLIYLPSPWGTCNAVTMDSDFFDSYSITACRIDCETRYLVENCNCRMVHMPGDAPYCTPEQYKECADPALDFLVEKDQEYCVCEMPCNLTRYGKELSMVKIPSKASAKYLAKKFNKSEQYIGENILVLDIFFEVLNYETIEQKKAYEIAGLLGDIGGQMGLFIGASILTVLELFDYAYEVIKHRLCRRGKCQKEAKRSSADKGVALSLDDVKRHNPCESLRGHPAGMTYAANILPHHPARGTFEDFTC
Put plainly: FRRFa enhancement of pH-gated currents at oocytes expressing WT or mutant rat ASIC1a. It counts as cell-based. The settings on record: K246A mutant; 50 μM FRRFa; n = 6. Here is the method: (§3) Figure 6 Determinants of FRRFa modulation of rat ASIC1a.A, pH 5.3 (filled black bars)-gated currents after preincubation in desensitizing pH (unfilled bars) alone or in 50 μM FRRFa (blue bars) at oocytes expressing WT or mutant rat ASIC1a (rASIC1a). The scale bars represent x, 10 s; y, 200 nA. Desensitizing pH described in Figure S4. B, mean (± SEM, n = 4–7) enhancement (currentb/currenta from (A)) of desensitized current amplitude by 50 μM FRRFa at indicated rat ASIC1a mutants. ASIC, acid-sensing ion channel.
(§4) Figure S4. Measurement of steady state desensitization and peptide modulation of rat ASIC1a mutants. (A) Left, example currents at an oocyte expressing a rat ASIC1a mutant in response to decreasing pH. Right, mean (± SEM, n = 3-4) normalized currents in response to decreasing pH. (B) Left, example currents at an oocyte expressing a rat ASIC1a mutant in response to pH 5.3 after pre-incubation in decreasing pH. Right, mean (± SEM, n = 3-4) normalized currents in response to decreasing pre-incubation pH. This established that pH 6.9 was strongly desensitizing for WT and most mutants, and pH 6.7 was strongly desensitizing for mutants K246A and V377A. (C) Example experiment showing: current response to activating pH (5.3) after pre-incubation in resting pH 7.8; current response ("a") to activating pH after 20 s pre-incubation in desensitizing pH (6.7 for this mutant); and current response ("b") to activating pH after 20 s pre-incubation in desensitizing pH plus 50 μM FRRFa. Dividing current amplitude "b" by that of "a" gives fold-enhancement by FRRFa in Fig. 6B. All scale bars: x, 10 s; y, 10 μA.

In assay [5] the target is T2, rat ASIC1a (Rattus norvegicus, UniProt P55926, S274A).
T2 construct: R. norvegicus NP_077068.1 (rat ASIC1a) and respective mutants; expressed in transfected cells; host or cells: Xenopus laevis oocytes (cRNA injection)
T2 sequence (P55926 1-526 S274A): T1 sequence (P55926 1-526 K246A) with A246K, S274A
The description is as above. It counts as cell-based. The following applies: S274A mutant; 50 μM FRRFa; n = 6. Here is the method:
as §3, §4

The target of assay [6] is T3, rat ASIC1a (Rattus norvegicus, UniProt P55926).
T3 construct: R. norvegicus NP_077068.1 (rat ASIC1a) and respective mutants; expressed in transfected cells; host or cells: Xenopus laevis oocytes (cRNA injection)
T3 sequence (P55926 1-526): T1 sequence (P55926 1-526 K246A) with A246K
The description is as above. It counts as cell-based. The settings on record: WT; 50 μM FRRFa; pH 5.3 after preincubation in desensitizing pH; n = 7. Here is the method: as §3, §4

Assay [7] deals with Malacoceros WaNaC^ON156824. Put plainly: Two-electrode voltage clamp of Xenopus oocytes expressing Malacoceros WaNaC ON156824. Type of assay: cell-based, Malacoceros fuliginosus. The settings on record: WT channel, n = 9, mean ± SEM, read-out: KWGGNSRMWa EC50.
The test system of assay [8] is Capitella FaNaC^52833. Put plainly: Two-electrode voltage clamp of Xenopus oocytes expressing Capitella FaNaC 52833. It counts as cell-based, Capitella teleta. The settings on record: WT; LFRYa 30 μM. Here is the method:
as §1

In assay [9] the target is Malacoceros fuliginosus WaNaC^ON156824 (Malacoceros fuliginosus).
Assay [10] has as its target Capitella teleta WaNaC^212912 (Wamide-gated sodium channel) (Capitella teleta).
The target in assay [11] is Aplysia kurodai FaNaC S184A (Aplysia kurodai).
Assay [12] has as its target Aplysia kurodai FaNaC (FMRFa-gated sodium channel) (Aplysia kurodai).
Assay [13] concerns the target Capitella teleta FaNaC^52833 (Capitella teleta).
The target of assay [14] is Malacoceros fuliginosus FaNaC^ON156826 (Malacoceros fuliginosus).
In assay [15] the target is Malacoceros fuliginosus FaNaC^ON156825 (Malacoceros fuliginosus).
The target of assay [16] is T4, rat ASIC1a (acid-sensing ion channel 1a) (rat) (UniProt P55926).
T4 sequence: T1 sequence (P55926 1-526 K246A) with A246K

For assay [17], the target named is T5, rat ASIC1a S274A (rat) (UniProt P55926).
T5 sequence: T1 sequence (P55926 1-526 K246A) with A246K, S274A

On to AWVGDKSLSW-NH2 [AWVGDKSLSWa], for which the AWVGDKSLSWa-gated currents result in assay [1] (R255Q, R291N and R472Q mutations) is “abolished”. Moreover, the EC50 – broadly, the concentration needed to bring the measured effect to its halfway point – in [1] (WT channel, Xenopus oocytes, n = 8, mean ± SEM, read-out: AWVGDKSLSWa EC50) came out at 2000 ± 200 nM.

With “FLRFa: peptide encoded by the Octopus FMRFa propeptide (FLRF-NH2)”, the “current amplitude relative to FMRFa” value in [2] was “larger currents than FMRFa”; in [3], “slightly larger currents than FMRFa”.

In the case of “FMKFa: peptide encoded by the Octopus FMRFa propeptide (FMKF-NH2)”, in assay [2], the “current amplitude relative to FMRFa” value is “larger currents than FMRFa”.

For the molecule “FRRFa: synthetic FMRFa analog that enhances ASICs (FRRF-NH2)”, the “enhancement of pH-gated currents” value in [4] is recorded as “not ostensibly enhanced at all”; in assay [5] it was 2 ± 0.3 fold; in assay [6], 10 ± 3 fold.

As for KWGGNSRMW-NH2 [KWGGNSRMWa], the EC50 in assay [7] was determined as 340 ± 100 nM.

Regarding “LFRYa: product of the RYamide propeptide from Capitella (LFRY-NH2)”, the “current response to peptide” value in [8] is reported as “small currents”.

Regarding KWGGNSRMW-NH2, the EC50 of peptide-gated current, two-electrode voltage clamp on Xenopus oocytes in [9] worked out at 340 nM.

Molecule AWVGDKSLSW-NH2 came in with an EC50 of peptide-gated current, two-electrode voltage clamp on Xenopus oocytes in assay [10] of 2000 nM.

For the molecule FMRF-NH2 [FMRFamide (Phe-Met-Arg-Phe-amide)], the EC50 of FMRFa-gated current, full concentration-response, two-electrode voltage clamp on Xenopus oocytes in [11] was determined as 30000 nM. The EC50 of FMRFa-gated current, two-electrode voltage clamp on Xenopus oocytes in assay [12] worked out at 3400 nM. Also, in assay [12], the I (3 μM)/I (30 μM) ratio of FMRFa potency (3 μM FMRFa-gated current amplitude/30 μM FMRFa-gated current amplitude) amounted to 0.64. Further, the figures for the EC50 of peptide-gated current, two-electrode voltage clamp on Xenopus oocytes in assay [13], in assay [14] and in assay [15] were 350 nM, 11000 nM and 230 nM, respectively.

FRRF-NH2 [FRRFa]: the results for the fold enhancement of desensitized pH 5.3-gated current by 50 μM FRRFa, two-electrode voltage clamp on Xenopus oocytes in assay [16] and in assay [17] were 10 fold and 2 fold, respectively.
